Measurements as given in patent publication US20220062148.

What was measured:
[1] = biological target: T1, Peptide sequence XIARQPWN
T1 chain: ARQPWN

[2] = biological target: T2, Peptide sequence FDNRVGKW
T2 chain: FDNRVGKW

[3] = biological target: T3, Peptide sequence QAVRPNGM
T3 chain: QAVRPNGM

[4] = biological target: T4, Peptide sequence QGKKAPXX
T4 chain: QGKKAP

[5] = biological target: T5, Peptide sequence WGNRSPLE
T5 chain: WGNRSPLE

B1: Atlantic cod trypsin I (protein)
chain: IVGGYECTKHSQAHQVSLNSGYHFCGGSLVSKDWVVSAAHCYKSVLRVRLGEHHIRVNEGTEQYISSSSVIRHPNYSSYNINNDIMLIKLTKPATLNQYVHAVALPTECAADATMCTVSGWGNTMSSVADGDKLQCLSLPILSHADCANSYPGMITQSMFCAGYLEGGKDSCQGDSGGPVVCNGVLQGVVSWGYGCAERDHPGVYAKVCVLSGWVRDTMANY
Question: What does the source list for B1?
Answer: Ion Precursor Intensities, 5′ incubation (multiplex substrate profiling, cleavage) [1]: 0; Ion Precursor Intensities, 15′ incubation (multiplex substrate profiling, cleavage) [1]: 0; Ion Precursor Intensities, 60′ incubation (multiplex substrate profiling, cleavage) [1]: 189000; Ion Precursor Intensities, 5′ incubation (multiplex substrate profiling, cleavage) [2]: 0; Ion Precursor Intensities, 15′ incubation (multiplex substrate profiling, cleavage) [2]: 0; Ion Precursor Intensities, 60′ incubation (multiplex substrate profiling, cleavage) [2]: 165000; Ion Precursor Intensities, 5′ incubation (multiplex substrate profiling, cleavage) [3]: 0; Ion Precursor Intensities, 15′ incubation (multiplex substrate profiling, cleavage) [3]: 0; Ion Precursor Intensities, 60′ incubation (multiplex substrate profiling, cleavage) [3]: 0; Ion Precursor Intensities, 5′ incubation (multiplex substrate profiling, cleavage) [4]: 0; Ion Precursor Intensities, 15′ incubation (multiplex substrate profiling, cleavage) [4]: 0; Ion Precursor Intensities, 60′ incubation (multiplex substrate profiling, cleavage) [4]: 0; Ion Precursor Intensities, 5′ incubation (multiplex substrate profiling, cleavage) [5]: 0; Ion Precursor Intensities, 15′ incubation (multiplex substrate profiling, cleavage) [5]: 0; Ion Precursor Intensities, 60′ incubation (multiplex substrate profiling, cleavage) [5]: 0
